Experimental data reported in publication PMC3974700, “SDA, a DNA Aptamer Inhibiting E- and P-Selectin Mediated Adhesion of Cancer and Leukemia Cells, the First and Pivotal Step in Transendothelial Migration during Metastasis Formation”.

Assays:
[1] = molecular target: T1, E-selectin/IgG-Fc chimera (human, UniProt P16581 22-556); assay: filter binding; 3 mM Mg2+; Selection buffer: 3 mM MgCl2 in PBS, pH 7.5 (with 1 mg/mL BSA as described for SELEX beads); room temperature, 30 min; DNA <1 nM, protein 0-1 uM; settings: protein: commercial; tags: IgG-Fc fusion; chain copies: 2; label: 32P (T4 polynucleotide kinase)
T1 sequence: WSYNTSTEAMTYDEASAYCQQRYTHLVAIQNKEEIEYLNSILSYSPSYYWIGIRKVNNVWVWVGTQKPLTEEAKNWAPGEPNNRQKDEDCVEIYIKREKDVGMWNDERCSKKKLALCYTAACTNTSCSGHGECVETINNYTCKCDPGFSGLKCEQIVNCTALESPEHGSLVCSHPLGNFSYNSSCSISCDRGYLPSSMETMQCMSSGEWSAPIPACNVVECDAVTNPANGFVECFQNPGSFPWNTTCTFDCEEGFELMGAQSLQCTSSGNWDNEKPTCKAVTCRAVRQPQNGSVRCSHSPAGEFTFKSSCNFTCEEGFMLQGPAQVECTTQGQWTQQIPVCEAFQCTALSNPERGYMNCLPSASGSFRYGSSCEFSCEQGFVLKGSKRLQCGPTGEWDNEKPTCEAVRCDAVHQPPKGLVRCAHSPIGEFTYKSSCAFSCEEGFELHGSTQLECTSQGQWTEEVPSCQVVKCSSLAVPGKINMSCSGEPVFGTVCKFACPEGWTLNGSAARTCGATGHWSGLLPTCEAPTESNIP

[2] = molecular target: P-selectin/IgG-Fc chimera (human, UniProt P16109 42-771); assay: as above; settings: protein: commercial; tags: IgG-Fc fusion; chain copies: 2; label: 32P (T4 polynucleotide kinase)
Sequence of P-selectin/IgG-Fc chimera (P16109 42-771, change not shown): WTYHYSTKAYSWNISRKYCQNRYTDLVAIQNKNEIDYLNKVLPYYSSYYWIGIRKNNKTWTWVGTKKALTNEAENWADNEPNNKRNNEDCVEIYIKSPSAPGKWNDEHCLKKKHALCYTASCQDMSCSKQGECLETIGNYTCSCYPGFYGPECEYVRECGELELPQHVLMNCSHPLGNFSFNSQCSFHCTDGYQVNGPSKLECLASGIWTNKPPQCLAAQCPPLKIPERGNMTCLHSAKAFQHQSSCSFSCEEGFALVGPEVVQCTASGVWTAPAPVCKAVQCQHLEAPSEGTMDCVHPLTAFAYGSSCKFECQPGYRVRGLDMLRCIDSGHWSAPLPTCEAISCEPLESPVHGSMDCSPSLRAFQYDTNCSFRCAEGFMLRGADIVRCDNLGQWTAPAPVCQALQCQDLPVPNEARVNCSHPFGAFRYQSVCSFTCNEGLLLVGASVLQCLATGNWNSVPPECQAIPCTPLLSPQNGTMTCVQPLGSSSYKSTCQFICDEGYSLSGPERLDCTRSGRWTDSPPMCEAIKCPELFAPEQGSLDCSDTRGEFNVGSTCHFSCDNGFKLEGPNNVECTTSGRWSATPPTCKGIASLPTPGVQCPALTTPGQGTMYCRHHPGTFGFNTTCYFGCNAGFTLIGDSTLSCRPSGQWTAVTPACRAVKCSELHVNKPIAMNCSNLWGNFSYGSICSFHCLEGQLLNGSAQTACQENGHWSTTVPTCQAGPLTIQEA

B1: SDA (ssDNA)
DNA: GCCTGTTGTGAGCCTCCTAACGATTTGGATTTGGGGTGGAGGGTATGGTTTGTGCTGGCGTTCTCATTTCCCATGCTTATTCTTGTCTCCC
Kd [1]: 0.098 ± 0.016 µM | Kd [2]: 0.095 ± 0.018 µM

B2: control DNA (ssDNA)
DNA: GCCTGTTGTGAGCCTCCTAACGAGGAGTGGGCTAAAGGTATGTTGTGGGTTTGGTTCCATGCTTATTCTTGTCTCCC
binding result [1]: no binding | binding result [2]: no binding
